Data: patent US20240053349A1
Blank lines part the entries; values can stand above or below the molecule they belong to. Square brackets hold non-standard residues; d marks the D form. Ends that are not written are not given here.

What was measured:
[1] = target: human plasma proteins; assay: plasma protein binding, dialysis 4 h at 37 C, 2 µM, LC-MS/MS; control
[2] = target: mouse plasma proteins (CD-1 mouse); assay: as above
[3] = target: T1, Fol-hshta-Gly-Phe-Lys(AO) (compound #3303) (not fully specified)
T1 chain: HSHTAGFK

[4] = target: T2, Fol-hshta-Lys(4-MPBA)-Gly-Phe-Lys(AO) (compound #3304)
T2 chain: HSHTAKGFK

[5] = target: T3, Fol-hshta-Lys(4-MPBA)-Gly-Phe-Lys(PEG3-DOTA) (compound #3302) (not fully specified)
T3 chain: HSHTAKGFK

[6] = target: T4, Fol-hshta-PEG3-Gly-Phe-Lys(DOTA) (compound #6307)
T4 chain: HSHTAGFK

[7] = target: T5, Fol-hshta-PEG3-Lys(DOTA) (compound #1189) (not fully specified)
T5 chain: HSHTAK

[8] = target: T6, Folate-hshta-G-F-K(DOTA)-OH (Indi 7327, compound #7327) (not fully specified)
T6 chain: HSHTAGFK

[9] = target: T7, Folate-hshta-Lys(IPBA)-Gly-Phe-Lys(DOTA) (compound #1307) (not fully specified)
T7 chain: HSHTAKGFK

[10] = target: T8, Folate-hshta-Lys(IPBA)-M-V-Lys(DOTA) (compound #1306) (not fully specified)
T8 chain: HSHTAKMVK

[11] = target: T9, Folate-hshta-Lys(MPBA)-Gly-Phe-Lys(DOTA) (compound #6305) (not fully specified)
T9 chain: HSHTAKGFK

[12] = target: T10, Folate-hshta-PEG3-Lys(MPBA)-Lys(DOTA) (compound #2809) (not fully specified)
T10 chain: HSHTAKK

[13] = target: Human FOLR1 on OVCAR3 cells (human) (UniProt P15328); assay: flow cytometry on OVCAR3 cells after 1 h at 37 C, before acid wash
[14] = target: Human FOLR1 on OVCAR3 cells (human) (UniProt P15328); assay: flow cytometry on OVCAR3 cells after 1 h at 37 C, after acid wash (internalized fraction)

Sequence of Human FOLR1 on OVCAR3 cells (human) (P15328 25-234 limits assumed): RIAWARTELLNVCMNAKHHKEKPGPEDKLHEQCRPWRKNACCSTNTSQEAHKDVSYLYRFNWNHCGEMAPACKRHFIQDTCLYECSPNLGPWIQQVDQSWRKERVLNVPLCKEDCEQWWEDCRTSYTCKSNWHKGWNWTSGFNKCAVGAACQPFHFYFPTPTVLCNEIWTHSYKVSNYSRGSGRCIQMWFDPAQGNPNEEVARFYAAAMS

Plasma % Bound [1]: 59.4% | Plasma % Bound [2]: 62.4%
Molecule: Octreotide Acetate (peptide)

B1: human recombinant neprilysin (NEP) (protein)
chain: YDDGICKSSDCIKSAARLIQNMDATTEPCTDFFKYACGGWLKRNVIPETSSRYGNFDILRDELEVVLKDVLQEPKTEDIVAVQKAKALYRSCINESAIDSRGGEPLLKLLPDIYGWPVATENWEQKYGASWTAEKAIAQLNSKYGKKVLINLFVGTDDKNSVNHVIHIDQPRLGLPSRDYYECTGIYKEACTAYVDFMISVARLIRQEERLPIDENQLALEMNKVMELEKEIANATAKPEDRNDPMLLYNKMTLAQIQNNFSLEINGKPFSWLNFTNEIMSTVNISITNEEDVVVYAPEYLTKLKPILTKYSARDLQNLMSWRFIMDLVSSLSRTYKESRNAFRKALYGTTSETATWRRCANYVNGNMENAVGRLYVEAAFAGESKHVVEDLIAQIREVFIQTLDDLTWMDAETKKRAEEKALAIKERIGYPDDIVSNDNKLNNEYLELNYKEDEYFENIIQNLKFSQSKQLKKLREKVDKDEWISGAAVVNAFYSSGRNQIVFPAGILQPPFFSAQQSNSLNYGGIGMVIGHEITHGFDDNGRNFNKDGDLVDWWTQQSASNFKEQSQCMVYQYGNFSWDLAGGQHLNGINTLGENIADNGGLGQAYRAYQNYIKKNGEEKLLPGLDLNHKQLFFLNFAQVWCGTYRPEYAVNSIKTDVHSPGNFRIIGTLQNSAEFSEAFHCRKNSYMNPEKKCRVW
NEP cleavage (in vitro Assay Data) [3]: Cleavage of -G-F-K- linker was confirmed in NEP assay. | NEP cleavage (in vitro Assay Data) [4]: Cleavage of -G-F-K- linker was confirmed in NEP assay. | NEP cleavage (in vitro Assay Data) [5]: Cleavage of -G-F-K- linker was confirmed in NEP assay. | NEP cleavage (in vitro Assay Data) [6]: Cleavage of -G-F-K- linker was confirmed in NEP assay. | NEP cleavage (in vitro Assay Data) [7]: Confirmed to be resistant to NEP cleavage. | NEP cleavage (in vitro Assay Data) [8]: Cleavage of -G-F-K- linker was confirmed in NEP assay. | NEP-mediated cleavage, NEP titration (10.0 to 0 nM), 37 C 1 h, MALDI-MS [8]: At 10 nM NEP, no intact Indi 7327 remains indicating complete consumption of the peptide. At 1.0 and 0.1 nM NEP, partial cleavage was observed. Below 0.1 nM NEP, no cleavage was observed. | NEP cleavage (in vitro Assay Data) [9]: Cleavage of -G-F-K- linker was confirmed in NEP assay. | NEP-mediated cleavage, MALDI-TOF MS [9]: At 1 nM NEP, substantial (and in the case of GFK complete) cleavage of the test article was observed by MALDI-TOF MS. | NEP cleavage (in vitro Assay Data) [10]: Cleavage of -M-V-K- linker was confirmed in NEP assay. | NEP-mediated cleavage, MALDI-TOF MS [10]: At 1 nM NEP, substantial (and in the case of GFK complete) cleavage of the test article was observed by MALDI-TOF MS. | NEP cleavage (in vitro Assay Data) [11]: Cleavage of -G-F-K- linker was confirmed in NEP assay. | NEP-mediated cleavage, NEP titration, MALDI (10 uM PCC) [11]: At 10 nM NEP, complete consumption of the starting peptide was observed. At 1 nM and 0.1 nM NEP, partial cleavage was observed. Below 0.1 nM no cleavage was observed. | NEP cleavage (in vitro Assay Data) [12]: Confirmed to be resistant to NEP cleavage.

percentage of positively stained cells [13]: 73.4% | percentage of positively stained cells [14]: 54.2%
B2: DyLight650-labeled folate-hshta Nterm heterobiligand (peptide)
peptide: folate-[dH][dS][dH][dT][dA]
modifications: also: triazole macrocycle via Pra and Az4, places not given here, DyLight 650 label, site not given here
